Test results: patent US10538591B2, “Anti-fibulin-3 antibodies and uses thereof” (THE BRIGHAM AND WOMEN'S HOSPITAL, INC., priority 2014, dated 2020)
“And” between values parts separate entries of the source, which are not always exact repeats. Equal values may be shown once. “Also recorded” adds a separate entry of the source.

Assays:
[1] = Acute toxicity, single IV injection dose-escalation; type: in vivo, athymic mice; set-up: Endpoint weight / Endpoint weight Average: unit not given here; Pre-inject weight / Pre-inject weight Average: unit: g; conditions: for Endpoint weight Average / Pre-inject weight Average: group average; for Endpoint weight / Pre-inject weight: individual mouse
Procedure: Table 2 summarizes the results of acute toxicity assays for mAb428.2 injected intravenously (IV) into mice. A dose-escalation study was performed with athymic mice that received a single IV injection of mAb428.2 (purified in low-endotoxin conditions). Doses ranged from 0.1 to 30 mg/kg and mice were observed (and weighed) for periods ranging from 15 minutes to 14 days after injection. Mice were perfused with 4% paraformaldehyde and several organs were recovered, processed for histochemistry and analyzed by a specialist in rodent histopathology. Note that recovered organs and tissues for FFPE+H&E processing were: cerebrum, cerebellum, eyes, liver, kidney, skin, forepaws (to assess connective tissue). This study was performed independently at the Beth Israel Deaconess Medical Center Preclinical Murine Pharmacogenomics Core and tissues were evaluated at the Dana-Farber/Harvard Cancer Center Rodent Histopathology Core.

[2] = system: GBM34 glioblastoma stem cells; assay: Intratumoral injection in subcutaneous GBM34 xenografts; type: in vivo, Athymic mice
Procedure: (§1) Athymic mice received sub-cutaneous (SQ) bilateral implants of GBM34 glioblastoma stem cells (1×10^6 cells/50 μl). Tumors were allowed to grow until they reached a volume of 100 mm^3. Animals (N=5/group) were then injected with mAb428.2 (10 mg/kg) in the left-side tumor and non-immune mouse IgG1 in the right-side tumor, every two days (total: 4 injections). Mice were sacrificed when any of their tumors reached a length >18 mm. […] Growth curves were analyzed by repeated-measures ANOVA and final parameters were compared by paired T-test.
as §1, with “received SQ” for “received sub-cutaneous (SQ)”, “Animals (N=3/group)” for “Animals (N=5/group)”, “with mAb428.3C11 (30” for “with mAb428.2 (10”, “(total: 3” for “(total: 4”, “length >=20” for “length >18”

[3] = target: T1, fibulin-3 in human primary glioblastoma (Homo sapiens, UniProt Q12805); assay: Immunohistochemistry of human primary glioblastoma sections; conditions: anti-Fib3/911 10 μg/ml, mAb428.3C11 40 μg/ml, mAb3-5 5 μg/ml
T1 construct: specificity of mAb428.3C11 to detect native fibulin-3 in tumor tissue; from tissue; host or cells: frozen sections of human primary glioblastoma
T1 sequence (Q12805 18-493): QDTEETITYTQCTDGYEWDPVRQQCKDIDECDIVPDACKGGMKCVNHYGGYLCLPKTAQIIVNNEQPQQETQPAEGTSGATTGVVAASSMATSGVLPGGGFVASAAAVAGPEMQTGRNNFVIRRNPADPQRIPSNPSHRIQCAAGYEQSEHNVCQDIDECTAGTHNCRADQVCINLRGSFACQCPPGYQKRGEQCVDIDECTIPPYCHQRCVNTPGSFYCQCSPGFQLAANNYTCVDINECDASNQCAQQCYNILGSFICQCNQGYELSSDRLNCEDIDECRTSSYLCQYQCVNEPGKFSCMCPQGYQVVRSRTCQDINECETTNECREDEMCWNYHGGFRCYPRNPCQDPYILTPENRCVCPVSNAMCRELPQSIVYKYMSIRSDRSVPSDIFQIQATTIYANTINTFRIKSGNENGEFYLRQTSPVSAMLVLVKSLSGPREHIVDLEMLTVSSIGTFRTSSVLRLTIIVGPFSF
Procedure: Frozen sections of human primary glioblastoma and normal adult human brain were fixed in ethanol/acetate buffer and processed for immunohistochemistry with the following anti-fibulin-3 antibodies: rabbit polyclonal anti-Fib3/911 (10 μg/ml), mouse monoclonal anti-fibulin-3 mAb428.3C11 (40 μg/ml), and a commercial mouse monoclonal antibody against human fibulin-3 (mAb3-5, 5 μg/ml, Santa Cruz Biotechnology). […] Both in-house generated antibodies show stronger staining in the tumor parenchyma compared to the commercial antibody. In all cases, staining is particularly intense around tumor blood vessels. […] Sections were counterstained to identify endothelial markers and cell nuclei by staining with anti-CD31 and DAPI respectively. (Data not shown).
Specific and striking fibrillar staining patterns of fibulin-3 were observed around tumor blood vessels (magnification: 40×). […] Endothelial cells were stained with anti-CD31 and cell nuclei with the dye DAPI. (Data not shown).

[4] = 0.1 mg/kg IV, 15 min after injection
[5] = 0.1 mg/kg IV, 24 h after injection
[6] = 0.1 mg/kg IV, 4 days after injection
[7] = 0.1 mg/kg IV, 14 days after injection
[8] = 1 mg/kg IV, 15 min after injection
[9] = 1 mg/kg IV, 24 h after injection
[10] = 1 mg/kg IV, 4 days after injection
[11] = 1 mg/kg IV, 14 days after injection
[12] = 10 mg/kg IV, 15 min after injection
[13] = 10 mg/kg IV, 24 h after injection
[14] = 10 mg/kg IV, 4 days after injection
[15] = 10 mg/kg IV, 14 days after injection
[16] = 30 mg/kg IV, 24 h after injection
[17] = 30 mg/kg IV, 4 days after injection
[18] = 30 mg/kg IV, 14 days after injection
[19] = single IV injection 0.1 to 30 mg/kg, 15 minutes to 14 days

B1: mAb428.2: mouse monoclonal IgG1 kappa antibody against human fibulin-3 peptide SEQ ID NO:2; VH SEQ ID NO: 3, VL SEQ ID NO: 4 (antibody, V domains shown)
VH: QIQLVQSGPELKKPGETVKISCKASGYSFTTYGMSWVKQAPGKGLKWMGWINTYSGVPTYADDFKGRFAFFLETSASTAYLQINNLKNEDTATYFCARWVDYWGQGTTLTVSS
VL: DIKMTQSPSSMYASLGERVTITCKASQDIKSYLSWHQQKPWKSPKTLIYYATSLADGVPSRFSGSGSGQDYSLTISSLESDDTATYYCLQHGKSPYTFGGGTKLEIK
Endpoint weight Average [1, 4]: 24.27 | Endpoint weight [1, 4]: 24.80 and 25.60 and 22.40 | Endpoint weight Average [1, 5]: 25.27 | Endpoint weight [1, 5]: 25.40 and 26.50 and 23.90 | Endpoint weight Average [1, 6]: 24.53 | Endpoint weight [1, 6]: 25.20 and 24.00 and 24.40 | Endpoint weight Average [1, 7]: 23.93 | Endpoint weight [1, 7]: 25.20 and 24.90 and 21.70 | Pre-inject weight Average ([1]; 0.1 mg/kg IV, endpoint 15 min): 23.95 | Pre-inject weight ([1]; 0.1 mg/kg IV, endpoint 15 min, measured the day before injection): 21.60 and 26.30 and 19.7 (*) | Pre-inject weight Average ([1]; 0.1 mg/kg IV, endpoint 24 h): 24.93 | Pre-inject weight ([1]; 0.1 mg/kg IV, endpoint 24 h): 25.10 and 26.30 and 23.40 | Pre-inject weight Average ([1]; 0.1 mg/kg IV, endpoint 4 days): 24.93 | Pre-inject weight ([1]; 0.1 mg/kg IV, endpoint 4 days): 25.10 and 24.80 and 24.90 | Pre-inject weight Average ([1]; 0.1 mg/kg IV, endpoint 14 days): 22.40 | Pre-inject weight ([1]; 0.1 mg/kg IV, endpoint 14 days): 24.10 and 24.70 and 18.40 | Endpoint weight Average [1, 8]: 24.40 | Endpoint weight [1, 8]: 25.20 and 24.00 (2×) | Endpoint weight Average [1, 9]: 26.30 | Endpoint weight [1, 9]: 25.80 and 26.30 and 26.80 | Endpoint weight Average [1, 10]: 23.93 | Endpoint weight [1, 10]: 25.00 and 22.80 and 24.00 | Endpoint weight Average [1, 11]: 24.37 | Endpoint weight [1, 11]: 24.60 and 24.00 and 24.50 | Pre-inject weight Average ([1]; 1 mg/kg IV, endpoint 15 min): 24.77 | Pre-inject weight ([1]; 1 mg/kg IV, endpoint 15 min, measured the day before injection): 25.30 and 24.60 and 24.40 | Pre-inject weight Average ([1]; 1 mg/kg IV, endpoint 24 h): 26.13 | Pre-inject weight ([1]; 1 mg/kg IV, endpoint 24 h): 25.80 and 25.90 and 26.70 | Pre-inject weight Average ([1]; 1 mg/kg IV, endpoint 4 days): 24.23 | Pre-inject weight ([1]; 1 mg/kg IV, endpoint 4 days): 25.30 and 22.80 and 24.60 | Pre-inject weight Average ([1]; 1 mg/kg IV, endpoint 14 days): 24.30 | Pre-inject weight ([1]; 1 mg/kg IV, endpoint 14 days): 24.60 and 23.80 and 24.50 | Endpoint weight Average [1, 12]: 23.60 | Endpoint weight [1, 12]: 23.50 and 22.90 and 24.40 | Endpoint weight Average [1, 13]: 26.47 | Endpoint weight [1, 13]: 26.30 and 25.60 and 27.50 | Endpoint weight Average [1, 14]: 24.00 | Endpoint weight [1, 14]: 24.70 and 23.60 and 23.70 | Endpoint weight Average [1, 15]: 25.30 | Endpoint weight [1, 15]: 25.10 and 24.80 and 26.00 | Pre-inject weight Average ([1]; 10 mg/kg IV, endpoint 15 min): 23.60 | Pre-inject weight ([1]; 10 mg/kg IV, endpoint 15 min, measured the day before injection): 23.60 and 23.20 and 24.00 | Pre-inject weight Average ([1]; 10 mg/kg IV, endpoint 24 h): 26.00 | Pre-inject weight ([1]; 10 mg/kg IV, endpoint 24 h): 26.20 and 25.00 and 26.80 | Pre-inject weight Average ([1]; 10 mg/kg IV, endpoint 4 days): 24.03 | Pre-inject weight ([1]; 10 mg/kg IV, endpoint 4 days): 24.70 and 24.00 and 23.40 | Pre-inject weight Average ([1]; 10 mg/kg IV, endpoint 14 days): 24.90 | Pre-inject weight ([1]; 10 mg/kg IV, endpoint 14 days): 24.60 and 24.40 and 25.70 | Endpoint weight Average [1, 16]: 26.40 | Endpoint weight [1, 16]: 27.40 and 26.30 and 25.50 | Endpoint weight Average [1, 17]: 24.70 | Endpoint weight [1, 17]: 25.20 and 26.30 and 22.60 | Endpoint weight Average [1, 18]: 23.70 | Endpoint weight [1, 18]: 25.50 and 23.70 and 21.90 | Pre-inject weight Average ([1]; 30 mg/kg IV, endpoint 24 h): 26.20 | Pre-inject weight ([1]; 30 mg/kg IV, endpoint 24 h): 27.40 and 26.10 and 25.10 | Pre-inject weight Average ([1]; 30 mg/kg IV, endpoint 4 days): 23.73 | Pre-inject weight ([1]; 30 mg/kg IV, endpoint 4 days): 24.00 and 25.30 and 21.90 | Pre-inject weight Average ([1]; 30 mg/kg IV, endpoint 14 days): 22.90 | Pre-inject weight ([1]; 30 mg/kg IV, endpoint 14 days): 24.20 and 23.20 and 21.30 | maximum tolerated dose before causing toxicity (MTD) ([1]; single IV injection): > 30 mg/kg | histopathology in tissues stained by H&E ([1]; single IV injection 0.1 to 30 mg/kg): no evidence of histopathology | adverse effects [1, 19]: no adverse effects after injection | weight loss [1, 19]: no weight loss | tumor volume and weight compared to control IgG1 ([2]; 10 mg/kg intratumoral every two days, 4 injections): reduction in tumor volume and weight | tumor volume and weight compared to control IgG1 ([2]; 30 mg/kg intratumoral every two days, 3 injections): reduction in tumor volume and weight | median volume reduction ([2]; direct intratumoral injection, GBM stem cell xenograft): 45% | fibulin-3 staining in glioblastoma tissue [3]: detected fibulin-3 in the stroma and capillaries of human GBM | fibulin-3 staining in glioblastoma tissue ([3]; listed as mAb428.3C11): Specific staining of fibulin-3 in tumor tissue; also recorded: detected the same fibrillar pattern observed with a commercial anti-fibulin-3 antibody
